Columns and labels:
[1] = tested on: T1, CC(=O)CCc1ccccc1; assay: HPLC quantification of (R)-1-methyl-3-phenylpropylamine, Michaelis-Menten fit; type: biochemical, Mycolicibacterium wolinskyi; details: pH 7.0, 40 °C, 30 min, 10 μg/mL enzyme, ketone 0-200 mM, standard assay has 20 mM (R)-2-aminoheptane, 2 mM PLP, 100 mM triethanolamine
T1 construct: N-terminal 6xHis tag, pET-15b, codon-optimised synthetic gene, E. coli BL21(DE3), Ni-NTA purified; about 48 kDa; PLP-dependent fold type IV
Description: (§1) HPLC quantification of (R)-1-methyl-3-phenylpropylamine, Michaelis-Menten fit on MwoAT

[2] = substrate: CC(=O)CCc1ccccc1; assay: as above; type: biochemical, Mycolicibacterium wolinskyi; details: pH 7.0, 40 °C, 30 min, 10 μg/mL enzyme, ketone 0-200 mM, standard assay has 20 mM (R)-2-aminoheptane, 2 mM PLP, 100 mM triethanolamine
Description: as §1

Molecule “MwoAT (Mycolicibacterium wolinskyi; L175A)” has a Km [1] of 54.25 ± 2.42 mM, a kcat [1] of 5.677 ± 0.0542 s⁻¹ and a kcat/Km [1] of 105 ± 5.67 M⁻¹ s⁻¹.

“MwoAT (Mycolicibacterium wolinskyi; L175G)” gave a Km [1] of 42.87 ± 0.43 mM, a kcat [1] of 5.32 ± 0.026 s⁻¹ and a kcat/Km [1] of 124 ± 2.5 M⁻¹ s⁻¹.

B1: MwoAT (Mycolicibacterium wolinskyi) (protein)
chain: MQYSDYELDTTSPFAGGVAWIEGEYLPASEAKISIFDTGFGHSDLTYTVAHVWHGNIFRLGDHLDRLLDGARKLRLDPGMSKDELAEITKKCVSLSQLRESFVNLTVTRGYGKRKGEKDLSKLTHQVYIYAIPYLWAFPPSEQIFGTTAIVPRHVRRAGRNTVDPTIKNYQWGDLTAASFEAKDRGARTAILMDADNCVAEGPGFNVVIVKDGKLASPSRNALPGITRKTVFEIADAMGIEAELRDVTSHELYDADELMAVTTAGGVTPINSLDGEPIGDGAPGPLTVAIRDRFWALMDEPSALIEAIQY
notes: N-terminal 6xHis tag, pET-15b, codon-optimised synthetic gene, E. coli BL21(DE3), Ni-NTA purified; about 48 kDa; PLP-dependent fold type IV
Molecule B1 has a Km [2] of 68.03 ± 1.68 mM, a kcat [2] of 3.9358 ± 0.0035 s⁻¹ and a kcat/Km [2] of 57.8 ± 1.5 M⁻¹ s⁻¹.

— PMC12564524, “AlphaFold-Guided Semi-Rational Engineering of an (R)-Amine Transaminase for Green Synthesis of Chiral Amines” (Biomolecules, 2025)
